One block for each substance: values may come before it.
Tests used:
[1] = molecular target: Rab1/Ypt1 (UniProt P01123)
[2] = molecular target: Rab5 (UniProt P51148)
UniProt P51148, sequence (P51148 whole entry): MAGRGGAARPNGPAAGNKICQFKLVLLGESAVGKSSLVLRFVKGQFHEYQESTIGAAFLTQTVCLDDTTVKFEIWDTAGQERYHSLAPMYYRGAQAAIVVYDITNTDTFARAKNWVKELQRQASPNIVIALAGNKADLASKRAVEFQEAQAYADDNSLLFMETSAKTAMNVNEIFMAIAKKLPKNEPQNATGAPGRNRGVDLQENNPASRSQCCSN

UniProt P01123, sequence (P01123 whole entry): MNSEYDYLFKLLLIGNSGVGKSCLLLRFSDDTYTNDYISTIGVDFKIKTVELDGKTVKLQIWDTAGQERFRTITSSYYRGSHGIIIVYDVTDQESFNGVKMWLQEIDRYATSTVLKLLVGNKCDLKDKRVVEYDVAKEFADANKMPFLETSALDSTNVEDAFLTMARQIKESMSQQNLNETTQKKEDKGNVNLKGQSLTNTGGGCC

GEF activity towards Rab1 (release of Mant-GDP), reduction against wild type TRAPP [1]: 4 fold
Substance: TRAPP Bet3 E192A/D193A mutant (from UniProt P36149 1-193) (complex)

catalytic efficiency (kcat/Km) of TRAPP-stimulated GDP-release from Rab1/Ypt1 (release of Mant-GDP) [1]: 130000 M⁻¹ s⁻¹
Substance: TRAPPI-complex (from UniProt P36149 1-193)

catalytic efficiency (kcat/Km) of Rabex-mediated nucleotide exchange (release of Mant-GDP from Rab5) [2]: 25000 M⁻¹ s⁻¹
Substance: Rabex5 (enzyme)

Source: PMC3919270
